{
  "source": "paper PMC4323857",
  "target": "D4 self-association region of P6 (amino acids 414-520), in pEG202 (Cauliflower mosaic virus isolate CM1841)",
  "assay": "two-hybrid",
  "data": [
    {"substance": "Full-length P6 with the D3b mutation V324A, in pJG4-5 (natural protein)", "values": [
      {"measurement": "fold less β-galactosidase activity than the wild type", "value": 9, "unit": "fold"}
    ]}
  ]
}
